Experiments:
IL-17 [1] = target: T1, IL-17 (Homo sapiens, UniProt Q16552 Q16552:24-155); test: SPR; IL-17 150 nM, aptamer 12.5 or 50 nM; conditions: chain copies: 2
T1 sequence: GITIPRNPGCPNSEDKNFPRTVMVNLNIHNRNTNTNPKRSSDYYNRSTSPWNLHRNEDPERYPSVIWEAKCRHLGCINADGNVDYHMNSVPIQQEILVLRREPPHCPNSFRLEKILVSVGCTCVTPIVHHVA
Method: Whether the synthesized aptamers inhibit the binding of IL-17 and IL-17 receptor was evaluated by the surface plasmon resonance method.
For the measurement, BIAcore T100 manufactured by GE Healthcare Bio Sciences was used. […] As an analyte, IL-17 (150 nM) and each aptamer (12.5 or 50 nM) shown by Table 3 were mixed, maintained for 15 min and after that the mixture was flown.

IL-17 [2] = target: T1, IL-17; test: SPR; IL-17R-Fc on chip; conditions: chain copies: 2
Method: Whether aptamers shown by aptamer Nos. 1-49 inhibit the binding of IL-17 and IL-17 receptor was evaluated by the surface plasmon resonance method.
For the measurement, BIAcore2000 manufactured by BIAcore was used. […] As an analyte, IL-17 (100 or 150 nM) and an aptamer (50 or 100 nM) shown by aptamer No. 1-49 were mixed, maintained for 15 min and after that the mixture was flown.

B1: aptamer No. 62 (mixed)
mixed: GGGUAGCCGGAGGAGTCAGTAAUCGGUACCC
modifications: 2'-OMe (M), 2'-F (F), PS (S) as marked; uppercase DNA [2'-OMe: 1,2,3,4,5,7,8,10,13,14,21,22,23,24,25,26,28,29,30,31; 2'-F: 11,17,18,27; PS: 6]
binding signal (IL-17 [1]): 25.9 % IL-17/IL-17R binding remaining

B2: aptamer No. 91 (mixed)
mixed: GGGUAGCCGGAGGAGTCAGTAAUCGGUACCC
modifications: 2'-OMe (M), 2'-F (F), PS (S) as marked; uppercase DNA [2'-OMe: 1-5,7,8,10,11,13,14,17,23-31; 2'-F: 18; PS: 6,15,19; DNA: 9,16,20]
binding signal (IL-17 [1]): 35.1 % IL-17/IL-17R binding remaining

B3: aptamer No. 54 (mixed)
RNA: GGGUAGCCGGAGGAGUCAGUAAUCGGUACCC
modifications: 2'-OMe (M), 2'-F (F), PS (S) as marked; uppercase DNA (U = deoxyuridine) [2'-OMe: 1,2,3,4,7,8,10,13,14,21,22,23,24,25,26,28; 2'-F: 11,17,18,27; PS: 6; dU: 16,20]
binding signal (IL-17 [1]): 25.1 % IL-17/IL-17R binding remaining

B4: aptamer No. 53 (mixed)
mixed: GGGUAGCCGGAGGAGTCAGTAAUCGGUACCC
modifications: 2'-OMe (M), 2'-F (F), PS (S) as marked; uppercase DNA [2'-OMe: 1,2,3,4,7,8,10,13,14,21,22,23,24,25,26,28; 2'-F: 11,17,18,27; PS: 6,19]
binding signal (IL-17 [1]): 22.6 % IL-17/IL-17R binding remaining

B5: aptamer No. 76 (mixed)
RNA: GGGUAGCCGGAGGAGUCAGUAAUCGGUACCC
modifications: 2'-OMe (M), 2'-F (F) as marked; uppercase DNA [2'-OMe: 1-5,7,8,10,13,14,21-26,29-31; 2'-F: 11,16,17,18,20,27]
binding signal (IL-17 [1]): 24.1 % IL-17/IL-17R binding remaining

B6: aptamer No. 32 (mixed)
mixed: GGGUAGCCGGAGGAGTCAGTAAUCGGTACCC
modifications: 2'-OMe (M), 2'-F (F) as marked; uppercase DNA [2'-OMe: 1,2,3,4,7,8,10,13,14,21,22,23,24,25,26; 2'-F: 17]
binding signal (IL-17 [2]): 13.2 % IL-17/IL-17R binding remaining

B7: aptamer No. 84 (mixed)
RNA: GGGUAGCCGGAGGAGUCAGUAAUCGGUACCC
modifications: 2'-OMe (M), 2'-F (F), PS (S) as marked; uppercase DNA [2'-OMe: 1-5,7,8,10,11,13,14,21-31; 2'-F: 16,17,18,20; PS: 6,15,19; DNA: 9]
binding signal (IL-17 [1]): 27.7 % IL-17/IL-17R binding remaining

B8: aptamer No. 70 (mixed)
RNA: GGGUAGCCGGAGGAGUCAGUAAUCGGUACCC
modifications: 2'-OMe (M), 2'-F (F), PS (S) as marked; uppercase DNA [2'-OMe: 1-5,7,8,10,13,14,21-26,28-31; 2'-F: 11,16,17,18,20,27; PS: 6,15,19]
binding signal (IL-17 [1]): 35 % IL-17/IL-17R binding remaining

B9: aptamer No. 33 (mixed)
mixed: GGGUAGCCGGAGGAGTCAGTAAUCGGTACCC
modifications: 2'-OMe (M), 2'-F (F) as marked; uppercase DNA [2'-OMe: 1,2,3,4,7,8,10,13,14,21,23,24,25,26; 2'-F: 17]
binding signal (IL-17 [2]): 15.9 % IL-17/IL-17R binding remaining

B10: aptamer No. 49 (mixed)
mixed: GGGUAGCCGGAGGAGTCAGTAAUCGGUACCC
modifications: 2'-OMe (M), 2'-F (F) as marked; uppercase DNA; (PI) printed, likely (M) [2'-OMe: 1-4,7,8,10,14,23-26,28; 2'-F: 17,27; 13 printed (PI), likely 2'-OMe]
binding signal (IL-17 [2]): 19 % IL-17/IL-17R binding remaining

B11: aptamer No. 56 (mixed)
mixed: GGGUAGCCGGAGGAGTCAGTAAUCGGUACCC
modifications: 2'-OMe (M), 2'-F (F), PS (S) as marked; uppercase DNA [2'-OMe: 1,2,3,4,7,8,10,13,14,21,22,23,24,25,26,28; 2'-F: 11,17,18,27; PS: 6,15,19]
binding signal (IL-17 [1]): 27 % IL-17/IL-17R binding remaining

B12: aptamer No. 58 (mixed)
mixed: GGGUAGCCGGAGGAGTCAGTAAUCGGUACCC
modifications: 2'-OMe (M), 2'-F (F), PS (S) as marked; uppercase DNA [2'-OMe: 1,2,3,4,7,8,10,13,14,19,21,22,23,24,25,26,28; 2'-F: 11,17,18,27; PS: 6,12,15]
binding signal (IL-17 [1]): 33.7 % IL-17/IL-17R binding remaining

B13: aptamer No. 83 (mixed)
RNA: GGGUAGCCGGAGGAGUCAGUAAUCGGUACCC
modifications: 2'-OMe (M), 2'-F (F), PS (S) as marked; uppercase DNA [2'-OMe: 1-5,7,8,10,11,13,14,17,21-26,28-31; 2'-F: 16,18,20,27; PS: 6,15,19; DNA: 9]
binding signal (IL-17 [1]): 33.5 % IL-17/IL-17R binding remaining

B14: aptamer No. 47 (mixed)
mixed: GGGUAGCCGGAGGAGTCAGTAAUCGGUACCC
modifications: 2'-OMe (M), 2'-F (F) as marked; uppercase DNA [2'-OMe: 1-4,7,8,10,13,14,23-26,28; 2'-F: 11,17,18,27]
binding signal (IL-17 [2]): 17.6 % IL-17/IL-17R binding remaining

B15: aptamer No. 29 (mixed)
mixed: GGGUAGCCGGAGGAGTCAGTAAUCGGTACCC
modifications: 2'-OMe (M), 2'-F (F) as marked; uppercase DNA [2'-OMe: 1,2,3,4,7,8,10,13,14,21,22,23,24,25,26,28,29,30,31; 2'-F: 17]
binding signal (IL-17 [2]): 13.3 % IL-17/IL-17R binding remaining

B16: aptamer No. 80 (mixed)
RNA: GGGUAGCCGGAGGAGUCAGUAAUCGGUACCC
modifications: 2'-OMe (M), 2'-F (F), PS (S) as marked; uppercase DNA [2'-OMe: 1-5,7,8,10,13,14,21-26,29-31; 2'-F: 11,16,17,18,20,27; PS: 6; DNA: 9,28]
binding signal (IL-17 [1]): 25.3 % IL-17/IL-17R binding remaining

B17: aptamer No. 73 (mixed)
RNA: GGGUAGCCGGAGGAGUCAGUAAUCGGUACCC
modifications: 2'-OMe (M), 2'-F (F), PS (S) as marked; uppercase DNA [2'-OMe: 1-5,7,8,10,13,14,21-31; 2'-F: 11,16,17,18,20; PS: 6,15,19]
binding signal (IL-17 [1]): 32 % IL-17/IL-17R binding remaining

B18: aptamer No. 69 (mixed)
RNA: GGGUAGCCGGAGGAGUCAGUAAUCGGUACCC
modifications: 2'-OMe (M), 2'-F (F), PS (S) as marked; uppercase DNA [2'-OMe: 1-5,7,8,10,13,14,21-26,28-31; 2'-F: 11,16,17,18,20,27; PS: 6]
binding signal (IL-17 [1]): 18.4 % IL-17/IL-17R binding remaining

B19: aptamer No. 72 (mixed)
RNA: GGGUAGCCGGAGGAGUCAGUAAUCGGUACCC
modifications: 2'-OMe (M), 2'-F (F), PS (S) as marked; uppercase DNA [2'-OMe: 1-5,7,8,10,13,14,21-31; 2'-F: 11,16,17,18,20; PS: 6]
binding signal (IL-17 [1]): 26.1 % IL-17/IL-17R binding remaining

B20: aptamer No. 63 (mixed)
mixed: GGGUAGCCGGAGGAGTCAGTAAUCGGUACCC
modifications: 2'-OMe (M), 2'-F (F), PS (S) as marked; uppercase DNA [2'-OMe: 1,2,3,4,5,7,8,10,13,14,21,22,23,24,25,26,28,29,30,31; 2'-F: 11,17,18,27; PS: 6,15,19]
binding signal (IL-17 [1]): 27.1 % IL-17/IL-17R binding remaining

B21: aptamer No. 59 (mixed)
mixed: GGGUAGCCGGAGGAGTCAGTAAUCGGUACCC
modifications: 2'-OMe (M), 2'-F (F), PS (S) as marked; uppercase DNA [2'-OMe: 1,2,3,4,7,8,10,13,14,19,21,22,23,24,25,26,28,29,30,31; 2'-F: 11,17,18,27; PS: 6,15]
binding signal (IL-17 [1]): 36.5 % IL-17/IL-17R binding remaining

B22: aptamer No. 68 (mixed)
RNA: GGGUAGCCGGAGGAGUCAGUAAUCGGUACCC
modifications: 2'-OMe (M), 2'-F (F), PS (S) as marked; uppercase DNA [2'-OMe: 1-5,7,8,10,13,14,21-26,29-31; 2'-F: 11,16,17,18,20,27; PS: 6,15,19]
binding signal (IL-17 [1]): 37 % IL-17/IL-17R binding remaining

B23: aptamer No. 60 (mixed)
mixed: GGGUAGCCGGAGGAGTCAGTAAUCGGUACCC
modifications: 2'-OMe (M), 2'-F (F), PS (S) as marked; uppercase DNA [2'-OMe: 1,2,3,4,5,7,8,10,13,14,19,21,22,23,24,25,26,28,29,30,31; 2'-F: 11,17,18,27; PS: 6,15]
binding signal (IL-17 [1]): 31.9 % IL-17/IL-17R binding remaining

B24: aptamer No. 86 (mixed)
mixed: GGGUAGCCGGAGGAGTCAGTGAUCGGUACCC
modifications: 2'-OMe (M), 2'-F (F), PS (S) as marked; uppercase DNA [2'-OMe: 1-5,7,8,10,11,13,14,17,21-31; 2'-F: 18; PS: 6,15,19; DNA: 9,16,20]
binding signal (IL-17 [1]): 35.7 % IL-17/IL-17R binding remaining
